Test results as given in PMC8339130.
Read-outs that look alike come from different tables or passages of the source.

Key:
[1] = target: HIV-1 Gag matrix domain (MA) (HIV-1); assay: crystal structure; MA co-crystallised with IP6; three crystal forms: cryogenic MA_IP6_R32 (2.40 Å), cryogenic MA_IP6_C2 (2.72 Å, six chains in the asymmetric unit), ambient-temperature SFX MA_IP6_SFX_P1 (3.5 Å); PEG 3350 or PEG 4000/2-propanol, 100 mM MES pH 6.0-6.5
[2] = target: HIV-1 Gag matrix domain (MA) (HIV-1); assay: as above; remark: listed apart in the source

Substance: HIV-1 Gag matrix domain (MA) (domain or fragment)
- stoichiometry N [1]: 6
- stoichiometry N [2]: 3
